Test results reported in the supplement of paper PMC10567573.

B1: KLHL14 (parent)
chain: YVIGGRNETGYLSSVECYNLETNE
B2: KRT13 (parent)
chain: KTIEELRDKILTATIENNRVILEI

Variants of: B1
Assay: protein stability index of a GFP-peptide fusion (GPS, HEK-293T) (PSI 1-6); higher = more stable
Conditions: c terminus: a fixed tail appended
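Also: lentivirally expressed fusions sorted by FACS into six bins by GFP to DsRed ratio, PSI derived from sequencing read proportions per bin multiplied by bin number.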

Protein stability index of substitutions, site by site:
S14: G 2.31
L12: Y 1.8 | V 2.21 | H 1.92 | I 2.25 | A 2.62
S13: H 1.58 | P 2.6
E21: R 1.91 | M 1.74 | C 2.61 | H 1.63
V2: F 3.32 | P 3.9
E24: I 2.19 | T 1.63 | F 1.95 | L 2.27
V15: E 2.69 | H 2.24 | L 1.9 | R 2.01 | Q 2.49
N23: K 1.96
L20: W 1.55
T22: I 1.84 | N 1.63 | V 2.6 | P 1.76 | F 1.54 | K 2.2
N19: G 1.7 | Q 2 | R 1.49
Y18: F 2.1 | M 2.4
N7: W 1.63 | M 1.66 | I 1.74
Y1: G 4.99 | D 4.64 | V 3.2 | Q 4.68 | S 4.63
G10: Q 2.29 | D 3.07 | E 3.13 | L 2.62 | W 2.21 | F 2.81 | M 1.68 | S 1.93
G4: V 1.3 | F 1.31 | P 2.56 | K 2.34 | L 1.47 | H 2.4 | R 1.71 | T 1.5 | D 1.89 | S 2.46
C17: F 1.66 | K 2.28 | D 2.82 | S 2.11 | V 1.48 | H 2.08
E16: N 2.33 | F 3.4 | W 2.93 | M 1.45 | T 1.96 | K 1.28
G5: R 1.71 | Q 2.1 | L 2.82 | I 2.24 | F 2.41 | Y 1.72 | K 1.76 | T 2.33 | P 1.89
T9: M 2.37 | H 1.6 | W 1.78 | F 2.21 | S 1.93
E8: K 1.89 | T 1.78 | H 2.02
R6: D 2.57 | Q 2.77 | P 2.51 | M 1.69 | E 2.97 | F 1.5 | N 2.2
I3: G 2.4 | Q 2.06 | D 2.39 | R 1.49 | C 1.66
Y11: G 2.85 | M 1.96 | L 2.2

Variants of: B2
Assay: as above
Conditions: c terminus: a fixed tail appended

Protein stability index, by site and new letter:
E4: H 3.82 | M 1.7 | V 2.4 | L 4.03 | A 1.85 | T 3.39 | I 2.6
K9: T 2.35 | A 1.85 | P 2.84 | V 2.86 | S 1.99 | E 2.7 | D 2.24 | N 2.29 | L 2.37 | C 3.32
E23: V 3.08 | K 1.25 | G 2.06 | S 2.78 | Y 2.07 | H 2.05 | R 2.55 | F 4.41 | P 2.08 | Q 2.47
V20: S 2.01 | L 3.48 | N 2.57 | G 1.6 | I 2.69 | E 2.27 | Y 1.78 | R 1.72 | F 1.8 | W 3.15 | P 1.78 | Q 2.05 | D 2.35 | T 2.33
L22: P 3.33 | K 2.38 | Q 2.88 | V 2.97 | H 2.52 | N 2.83 | F 3.35 | Y 2.83 | M 2.2
I21: V 2.6 | Q 1.94 | L 2.52 | E 2.19 | C 2.42 | S 1.55 | K 1.74 | H 2.49 | Y 2.79 | P 2.44 | D 2.43
A13: R 3.35 | S 3.69 | H 2.38 | C 2.5 | Q 1.81 | T 1.92 | G 3.86 | D 1.53 | V 3 | K 1.67 | N 2.31 | M 1.08 | W 2.81
I3: Q 2.43 | N 2.43 | K 2.09 | P 1.39 | R 1.36 | D 1.67 | T 2.91 | G 3.54 | E 2.13 | S 2.41 | F 3.37
T12: G 1.59 | A 2.5 | Y 3.8 | D 1.76 | R 1.88 | I 3.39 | V 3.5 | H 2.66 | P 2.42
R7: Q 2.85 | I 2.6 | F 1.85 | P 1.15 | T 2.16 | C 3.68 | M 2.07 | A 2.27 | L 3.71 | K 1.51
E16: C 2.33 | V 2.8 | W 3.31 | L 3.35 | Q 3.1 | A 3.13 | G 2.38 | D 3.13 | Y 1.32
R19: G 3.05 | P 2.25 | T 2.99 | D 2.11 | E 2.47 | W 2.74 | H 3.1 | I 3 | N 1.76
D8: A 2.49 | Y 2.14 | I 1.64 | Q 1.67 | P 2.46 | L 1.77
N17: M 2.57 | D 2.84 | G 3.5 | L 1.78 | I 1.73
E5: G 2.46 | Q 2.38 | A 2.6 | M 4.08 | K 2.95 | R 2.13 | I 3.5 | W 2.82 | V 1.83 | P 3.07
N18: R 3.44 | W 1.96 | P 3.68 | H 2.65 | G 2.33 | D 2.18 | I 2.9
T14: E 2.77 | Q 2.99 | R 2.59 | D 2.57 | C 3.4 | L 1.71 | A 4.11 | P 2.52 | G 4.63
I10: E 2 | V 1.75 | H 2.12 | C 2.28 | K 1.55 | M 2.3 | D 1.73 | N 1.78 | P 2.7 | L 1.47 | Y 3.2 | W 3.93
I24: W 2.09 | P 3.4 | M 1.9 | T 1.73 | N 2.64 | Q 2.44 | Y 2.16 | F 3 | R 1.98 | L 3.35 | C 2.44 | V 2.97 | D 3.09
L11: T 1.91 | P 1.95 | G 1.87 | F 2.34 | S 2.68 | C 2.33 | D 1.57 | M 2.94 | H 1.52 | E 1.92 | Y 3.58
T2: E 1.63 | K 2.6 | Q 3.17 | A 2.31
K1: M 1.88 | C 1.99 | R 1.6 | S 3.17 | E 2.38 | I 2.74 | T 2.34 | N 2.48
L6: A 1.94 | Q 1.89 | P 1.48 | Y 3.18 | R 2.56 | E 1.85 | C 3.04 | G 1.47 | D 1.92 | N 1.31 | H 3.32
I15: S 2.17 | A 1.66 | L 2.31 | P 2.17 | D 1.75 | F 1.08 | N 2.98 | T 2.6 | K 3.7 | G 2.77
